This experiment concerns the target T1, τ95 (Tfc1), τA subunit of endogenous S. cerevisiae TFIIIC (S. cerevisiae, UniProt P32367 1-649).
T1 construct: τ95 (Tfc1), subunit of S. cerevisiae TFIIIC, endogenous subunit in the purified complex; source: endogenous, purified from S. cerevisiae strain SC2342 as part of TFIIIC (TAP tag on τ60)
T1 sequence (looked up): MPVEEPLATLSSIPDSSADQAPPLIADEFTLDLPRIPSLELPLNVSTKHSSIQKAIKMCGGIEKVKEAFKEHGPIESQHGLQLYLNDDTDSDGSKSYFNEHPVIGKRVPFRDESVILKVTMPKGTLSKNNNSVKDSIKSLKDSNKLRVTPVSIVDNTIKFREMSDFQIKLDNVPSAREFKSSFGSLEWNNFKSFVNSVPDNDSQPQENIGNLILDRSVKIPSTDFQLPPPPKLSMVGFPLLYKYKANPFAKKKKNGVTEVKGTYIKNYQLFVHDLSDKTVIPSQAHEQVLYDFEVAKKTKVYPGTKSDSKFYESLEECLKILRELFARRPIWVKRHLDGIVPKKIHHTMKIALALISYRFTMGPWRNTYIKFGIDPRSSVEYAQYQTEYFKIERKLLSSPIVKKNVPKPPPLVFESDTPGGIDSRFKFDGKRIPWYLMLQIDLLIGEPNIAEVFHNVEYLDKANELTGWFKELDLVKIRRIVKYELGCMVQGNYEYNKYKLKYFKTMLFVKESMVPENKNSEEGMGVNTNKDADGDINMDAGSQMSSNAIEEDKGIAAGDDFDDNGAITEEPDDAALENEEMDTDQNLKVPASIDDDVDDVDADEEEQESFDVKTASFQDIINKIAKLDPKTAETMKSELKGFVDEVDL
The experiment can be described thus: cross-linking; XL-MS: purified endogenous TFIIIC (30 μg, 1 μg/μl) cross-linked with H12/D12 DSS to 2 mM, 40 min at 37 °C; ld-score >25. To be noted: both partners purified.

B1: τ55 (Tfc7), τA subunit of endogenous S. cerevisiae TFIIIC (natural protein, UniProt Q12415 1-435, looked up)
chain: MVVNTIYIARHGYRSNWLPEGPYPDPLTGIDSDVPLAEHGVQQAKELAHYLLSLDNQPEAAFASPFYRCLETVQPIAKLLEIPVYLERGIGEWYRPDRKPVIPVPAGYEILSKFFPGVISQEWDSTLTPNEKGETEQEMYMRFKKFWPLFIERVEKEYPNVECILLVTHAASKIALGMSLLGYDNPRMSLNENGDKIRSGSCSLDKYEILKKSYDTIDETDDQTSFTYIPFSDRKWVLTMNGNTEFLSSGEEMNWNFDCVAEAGSDADIKKRQMTKKTSSPIPEADDQTEVETVYISVDIPSGNYKERTEIAKSAILQYSGLETDAPLFRIGNRLYEGSWERLVGTELAFPNAAHVHKKTAGLLSPTEENETTNAGQSKGSSTANDPNIQIQEEDVGLPDSTNTSRDHTGDKEEVQSEKIYRIKERIVLSNVRPM
notes: τ55 (Tfc7), subunit of S. cerevisiae TFIIIC, endogenous subunit in the purified complex; source: endogenous, purified from S. cerevisiae strain SC2342 as part of TFIIIC (TAP tag on τ60)
With B1, the binding result is recorded as “binds”.

Source of the values: publication PMC4490372, “Architecture of TFIIIC and its role in RNA polymerase III pre-initiation complex assembly” (Nature Communications, 2015).
